Laboratory results: paper PMC9674830 (2022)
Positions of bridges follow the written chain, without caps; N, C: chain ends. Non-standard residues stand in square brackets, D forms with d. No end group written: not given here. pentenylalanine = pentenylalanine, unnatural amino acid di-substituted at Cα, crosslinked by ring-closing metathesis

B1: C-terminal domain of subunit 1 of the general transcription regulator TFIIF (RAP74-CTD) (domain or fragment)
chain: GDVQVTEDAVRRYLTRKPMTTKDLLKKFQTKKTGLSSEQTVNVLAQILKRLNPERKMINDKMHFSLKE

Target: B1
Assay: NMR

| Kd [µM] | Binder |
| --- | --- |
| > 1000 | SAAASSSWHTLFTAEEGQLYG [AR-WHTLF peptide] |
| > 1000 | KKPGASLAALQALQALQALQALQAAQAAKKY [peptide (P3-7)3] |
| 202 | KKPGASASW[pentenylalanine]QLF[pentenylalanine]EEQAAQAAKK (staple 10-14) [peptide γ_(Stpl)] |
| > 1000 | KKPGASAAAAQEAQLAQLAQELQAAQAAKKY [peptide δ_(ctrl)] |
| > 1000 | KKPGASLAALQALQALQAAQAAKKY [peptide (P3-7)2] |
| 626 | KKPGASLSWLQLFQEEQAAQAAKK (designed binder) [peptide γ] |
| > 1000 | KKPGASAAAAQE[pentenylalanine]QLA[pentenylalanine]LAQELQAAQAAKKY (staple 13-17) [peptide δ_(Stpl)] |

target: γCtrl; assay: NMR

| Kd [µM] | Binder |
| --- | --- |
| > 1000 | B1 |

Target: B1
Assay: ITC

| Kd [µM] | Binder |
| --- | --- |
| 256 | KKPGASLAALQELQLLQLLQELQAAQAAKKY (designed binder) [peptide δ] |
